According to US20250244325A1:

Tests used:
[1] = substrate: S clamp antigen from CSL451 GMP batch TC20-02-08 (sublot VS20200615A) (SARS-CoV-2) (UniProt P0DTC2); assay: kinetics on CM5 chip: anti-mouse Ab, 30B8 captured, CSL451 Sclamp antigen in solution, 1:1 binding; density 13 RU, table row 5
[2] = substrate: S clamp antigen from CSL451 GMP batch TC20-02-08 (sublot VS20200615A) (SARS-CoV-2) (UniProt P0DTC2); assay: kinetics on CM5 chip: anti-mouse Ab, 30B8 captured, CSL451 Sclamp antigen in solution, 1:1 binding; density 13 RU
[3] = substrate: S clamp antigen from CSL451 GMP batch TC20-02-08 (sublot VS20200615A) (SARS-CoV-2) (UniProt P0DTC2); assay: kinetics on CM5 chip: anti-mouse Ab, 30B8 captured, CSL451 Sclamp antigen in solution, 1:1 binding; density 20 RU, table row 4
[4] = substrate: S clamp antigen from CSL451 GMP batch TC20-02-08 (sublot VS20200615A) (SARS-CoV-2) (UniProt P0DTC2); assay: kinetics on CM5 chip: anti-mouse Ab, 30B8 captured, CSL451 Sclamp antigen in solution, 1:1 binding; density 20 RU, table row 3
[5] = substrate: S clamp antigen from CSL451 GMP batch TC20-02-08 (sublot VS20200615A) (SARS-CoV-2) (UniProt P0DTC2); assay: binding kinetics from sensorgrams (FIG. 6); instrument and format not given
[6] = substrate: S clamp antigen from CSL451 GMP batch TC20-02-08 (sublot VS20200615A) (SARS-CoV-2) (UniProt P0DTC2); assay: kinetics on CM5 chip: anti-mouse Ab, 30B8 captured, CSL451 Sclamp antigen in solution, 1:1 binding; density 7 RU, table row 8
[7] = substrate: S clamp antigen from CSL451 GMP batch TC20-02-08 (sublot VS20200615A) (SARS-CoV-2) (UniProt P0DTC2); assay: kinetics on CM5 chip: anti-mouse Ab, 30B8 captured, CSL451 Sclamp antigen in solution, 1:1 binding; density 40 RU, table row 1
[8] = substrate: S clamp antigen from CSL451 GMP batch TC20-02-08 (sublot VS20200615A) (SARS-CoV-2) (UniProt P0DTC2); assay: kinetics on CM5 chip: anti-mouse Ab, 30B8 captured, CSL451 Sclamp antigen in solution, 1:1 binding; MEAN ± SEM of the eight runs
[9] = substrate: S clamp antigen from CSL451 GMP batch TC20-02-08 (sublot VS20200615A) (SARS-CoV-2) (UniProt P0DTC2); assay: kinetics on CM5 chip: anti-mouse Ab, 30B8 captured, CSL451 Sclamp antigen in solution, 1:1 binding; density 7 RU, table row 7
[10] = substrate: S clamp antigen from CSL451 GMP batch TC20-02-08 (sublot VS20200615A) (SARS-CoV-2) (UniProt P0DTC2); assay: kinetics on CM5 chip: anti-mouse Ab, 30B8 captured, CSL451 Sclamp antigen in solution, 1:1 binding; density 40 RU, table row 2
[11] = substrate: S clamp antigen from CSL451 GMP batch TC20-02-08 (sublot VS20200615A) (SARS-CoV-2) (UniProt P0DTC2); assay: homologous 30B8 capture/detection EIA; CSL451 DP held 1 h at room temperature (control), pre-treated with 0.125% Zwittergent 3 h at 37 C, antigen titrated

B1: antibody 30B8 (antibody, V domains shown)
VH: EVQLQQSGAELVKPGASVKLSCTASGFNIKDTYIHWVKQRPEQGLEWIGRIDPANGNTKYDPKFQGKATITADTSSNTAYLQLSSLTSEDTAVCYCAGSLYDYDGAPFAYWGQGTLVTVSA
VL: SIVMTQTPKFLLVSAGDRVTITCKASQSVTNDVTWYQQKPGQSPKLLIYYASNRYTGVPDRFTGSGYGTDFTFTISTVQAEDLAVYFCQQDYSSPWTFGGGTKLEIK
[1]
  Kd: 0.0171 nM
  koff: 3.96e-05 s⁻¹
  kon: 2.31e+06 M⁻¹ s⁻¹
[2]
  Kd: 0.0171 nM
  koff: 3.98e-05 s⁻¹
  kon: 2.33e+06 M⁻¹ s⁻¹
[3]
  Kd: 0.0152 nM
  koff: 3.68e-05 s⁻¹
  kon: 2.42e+06 M⁻¹ s⁻¹
[4]
  Kd: 0.0155 nM
  koff: 3.66e-05 s⁻¹
  kon: 2.37e+06 M⁻¹ s⁻¹
[5]
  Kd: 0.015 nM
[6]
  Kd: 0.0131 nM
  koff: 3.06e-05 s⁻¹
  kon: 2.33e+06 M⁻¹ s⁻¹
[7]
  Kd: 0.0159 nM
  koff: 3.76e-05 s⁻¹
  kon: 2.36e+06 M⁻¹ s⁻¹
[8]
  Kd: 0.0151 nM
[9]
  Kd: 0.013 nM
  koff: 3.11e-05 s⁻¹
  kon: 2.39e+06 M⁻¹ s⁻¹
[10]
  Kd: 0.0138 nM
  koff: 3.25e-05 s⁻¹
  kon: 2.35e+06 M⁻¹ s⁻¹
[11]
  EC50 (read off the curve): 0.7 µg/mL
